# Test results published in article PMC13270999, “Chronology of tRNA structural dynamics prior to and during interaction with a pseudouridine synthase”.
# B1: Ψ55 tRNA eMet(CAU), Cy3/Cy5 (structured_RNA)
# RNA: GCUUCAGUAGCUCAGUAGGAAGAGCGUCAGUCUCAUAAUCUGAAGGUCGAGAGUUCGAACCUCCCCUGGAGCACCA
# modifications: pseudouridine at position 55 (second U of GAGAGUUCGAA)
# B2: U55 tRNA eMet(CAU), Cy3/Cy5 (structured_RNA)
# RNA: GCUUCAGUAGCUCAGUAGGAAGAGCGUCAGUCUCAUAAUCUGAAGGUCGAGAGUUCGAACCUCCCCUGGAGCACCA
# Legend:
# [1] = target: GST-tagged full-length S. cerevisiae Pus4 (S. cerevisiae) (UniProt P48567); assay: sucrose gradient ultracentrifugation; 10 uM purified GST-Pus4 with and without 10 uM total yeast tRNA, 30 min at room temperature; 10-30% sucrose step gradient in Buffer B (50 mM Tris-HCl pH 7.5, 100 mM KCl), SW 55 Ti, 4 h at 55,000 rpm; fractions read by SDS-PAGE; standards beta-amylase and carbonic anhydrase; apparent molecular …
# GST-Pus4 [2] = target: T1, GST-Pus4 (Saccharomyces cerevisiae, UniProt P48567 1-403); assay: smFRET / PIFE; 200 nM Pus4; BLI: 50 mM Tris-HCl pH 7.5, 100 mM KCl, 0.02% Tween-20, 30 °C; EMSA: 50 mM Tris-HCl pH 7.5, 100 mM KCl, 30 min room temperature, 8% native PAGE in TBE at 4 °C; settings: protein: recombinant; tags: N-terminal GST, Factor Xa site (pGEX-5X-3); tag not removed; label: 5' biotin; Cy3 at U4 C5; Cy5 at U41 C5; tRNA cloverleaf
# GST-Pus4 [3] = target: T1, GST-Pus4; assay: EMSA; 30 nM RNA; all bound at >=200 nM Pus4, 30 min; labelled form assumed; BLI: 50 mM Tris-HCl pH 7.5, 100 mM KCl, 0.02% Tween-20, 30 °C; EMSA: 50 mM Tris-HCl pH 7.5, 100 mM KCl, 30 min room temperature, 8% native PAGE in TBE at 4 °C; settings: protein: recombinant; tags: N-terminal GST, Factor Xa site (pGEX-5X-3); tag not removed; label: 5' biotin; Cy3 at U4 C5; Cy5 at U41 C5; tRNA cloverleaf
# T1 sequence (P48567 whole entry): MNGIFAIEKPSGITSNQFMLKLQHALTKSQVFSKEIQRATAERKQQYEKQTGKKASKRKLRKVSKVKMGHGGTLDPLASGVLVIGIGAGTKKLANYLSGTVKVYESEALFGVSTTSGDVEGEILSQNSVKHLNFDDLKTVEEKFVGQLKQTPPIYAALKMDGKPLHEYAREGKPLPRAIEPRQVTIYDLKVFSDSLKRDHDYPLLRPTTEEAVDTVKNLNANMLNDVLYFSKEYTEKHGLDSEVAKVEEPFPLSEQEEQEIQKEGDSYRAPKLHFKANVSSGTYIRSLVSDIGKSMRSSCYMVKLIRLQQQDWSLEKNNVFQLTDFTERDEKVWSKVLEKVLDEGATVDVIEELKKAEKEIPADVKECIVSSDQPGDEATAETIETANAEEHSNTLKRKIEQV
molecule,measurement,setting,value
GST-tagged full-length S. cerevisiae Pus4 (from UniProt P48567 1-403) (enzyme),stoichiometry N,[1],2
B1,binding result,GST-Pus4 [2],binds
B2,binding result,GST-Pus4 [3],binds
